Source: paper PMC3914216

What was measured:
[1] = target: T1, HMGA1b (UniProt P17096-2 1-96); experiment: EMSA
[2] = target: T1, HMGA1b; experiment: competition
[3] = target: T1, HMGA1b; experiment: competition; remark: listed apart in the source

Binder | binding result [3] | other results
ATf10 (dsDNA) DNA 1: CGCGGGGCCGCCGCGAAAAAAAAAAACCC DNA 2: GGGTTTTTTTTTTTCGCGGCGGCCCCGCG |  | binding result [1]: binds
ATs10 (dsDNA, phosphorothioate linkages after each of the 10 T (T4-T13) of strand 1; complement unmodified) DNA 1: GGGTTTTTTTTTTCGCGGCGGCCCCGCG DNA 2: CGCGGGGCCGCCGCGAAAAAAAAAACCC |  | binding signal [2]: ~1 ratio to ATf10
CG10 (dsDNA) DNA 1: GGGCCCCCCCCCCCGCGGCGGCCCCGCG DNA 2: CGCGGGGCCGCCGCGGGGGGGGGGGCCC | no binding | 
Mix10 (dsDNA) DNA 1: GGGCGTGACTGAGCGCGGCGGCCCCGCG DNA 2: CGCGGGGCCGCCGCGCTCAGTCACGCCC | no binding | 
